Each block holds one binder with its values, some of them ahead of it. Ends that are not written are not given here.
Legend:
Assay in all cases: peptide microarray
ApoC3 peptide … E70Y = biological target: T1, ApoC3 peptide … E70Y (human, cyclic constrained)
T1 peptide: DKFSEFWDLDPYV
Summary of the method: (§1)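 ApoC3 peptide microarrays incubated with antibody samples and then stained with goat anti-human IgG (Fc) DyLight680 plus anti-HA DyLight800 control antibody. Scanned at intensity 7/7 (red/green); a secondary-only prestain checked for background, and framing HA peptides served as quality control.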

ApoC3 peptide … F64D = biological target: T2, ApoC3 peptide … F64D (human, not fully specified (bridges); also: cyclic constrained)
T2 peptide: DKFSEDWDLDPEV
Summary of the method: as §1

ApoC3 peptide … W65Y = biological target: T3, ApoC3 peptide … W65Y (human, not fully specified (bridges); also: cyclic constrained, ring type and places not given here)
T3 peptide: DKFSEFYDLDPEV
Summary of the method: as §1

ApoC3 peptide … W65T = biological target: T4, ApoC3 peptide … W65T (human, not fully specified (bridges); also: cyclic constrained, ring type and places not given here)
T4 peptide: DKFSEFTDLDPEV
Summary of the method: as §1

ApoC3 peptide … D68Q = biological target: T5, ApoC3 peptide … D68Q (human, cyclic constrained)
T5 peptide: DKFSEFWDLQPEV
Summary of the method: as §1

ApoC3 peptide … E70T = biological target: T6, ApoC3 peptide … E70T (human, cyclic constrained)
T6 peptide: DKFSEFWDLDPTV
Summary of the method: as §1

ApoC3 peptide … F61R = biological target: T7, ApoC3 peptide … F61R (human, not fully specified (bridges); also: cyclic constrained)
T7 peptide: DKRSEFWDLDPEV
Summary of the method: as §1

ApoC3 peptide … S62C = ApoC3 peptide … S62C (human, cyclic constrained)
Summary of the method: as §1

ApoC3 peptide … F64S = biological target: T8, ApoC3 peptide … F64S (human, not fully specified (bridges); also: cyclic constrained)
T8 peptide: DKFSESWDLDPEV
Summary of the method: as §1

ApoC3 peptide … E63V = ApoC3 peptide … E63V (human, cyclic constrained)
Summary of the method: as §1

ApoC3 peptide … D59L = biological target: T9, ApoC3 peptide … D59L (human, cyclic constrained)
T9 peptide: LKFSEFWDLDPEV
Summary of the method: as §1

ApoC3 peptide … D66G = biological target: T10, ApoC3 peptide … D66G (human, not fully specified (bridges); also: cyclic constrained)
T10 peptide: DKFSEFWGLDPEV
Summary of the method: as §1

ApoC3 peptide … F64L = biological target: T11, ApoC3 peptide … F64L (human, not fully specified (bridges); also: cyclic constrained)
T11 peptide: DKFSELWDLDPEV
Summary of the method: as §1

ApoC3 peptide … D59E = biological target: T12, ApoC3 peptide … D59E (human, cyclic constrained)
T12 peptide: EKFSEFWDLDPEV
Summary of the method: as §1

ApoC3 peptide … F64T = biological target: T13, ApoC3 peptide … F64T (human, not fully specified (bridges); also: cyclic constrained)
T13 peptide: DKFSETWDLDPEV
Summary of the method: as §1

ApoC3 peptide … E63F = ApoC3 peptide … E63F (human, cyclic constrained)
Summary of the method: as §1

ApoC3 peptide … E70G = biological target: T14, ApoC3 peptide … E70G (human, not fully specified (bridges); also: cyclic constrained)
T14 peptide: DKFSEFWDLDPGV
Summary of the method: as §1

ApoC3 peptide … K60H = biological target: T15, ApoC3 peptide … K60H (human, not fully specified (bridges); also: cyclic constrained)
T15 peptide: DHFSEFWDLDPEV
Summary of the method: as §1

ApoC3 peptide … P69R = ApoC3 peptide … P69R (human, cyclic constrained)
Summary of the method: as §1

ApoC3 peptide … V71F = ApoC3 peptide … V71F (human, cyclic constrained)
Summary of the method: as §1

ApoC3 peptide … F64C = biological target: T16, ApoC3 peptide … F64C (human, not fully specified (bridges); also: cyclic constrained)
T16 peptide: DKFSECWDLDPEV
Summary of the method: as §1

ApoC3 peptide … V71P = ApoC3 peptide … V71P (human, cyclic constrained)
Summary of the method: as §1

ApoC3 peptide … D45F = biological target: T17, ApoC3 peptide … D45F (human, not fully specified (bridges); also: cyclic constrained)
T17 peptide: ARGWVTFGFSSLK
Description: (§2) Amino acids G41 and G46 were highly conserved; substitution of G41 by E, N or Q caused a decrease of spot intensities by ˜70% or higher, whereas exchange of G46 by N was hardly tolerated and resulting in 90% reduced spot intensities. […] Amino acid positions V43, D45 and K51 were also well conserved with a clear preference for the wild type amino acids and a certain tolerance particularly for conservative exchanges by Y, F and I (V43), A, E and K (D45) as well as by R (K51). […] Replacement of V43 by Y, however, increased spot intensity by two fold. Amino acid positions W42 and 48S were poorly conserved or even variable; both positions were susceptible for only a number of amino acid exchanges, and exchange by F, S and T (W42) or by E (S48) even caused a two- to three-fold increase of spot intensity. Amino acid positions A39 and R40 were variable.
(§3) Pre: staining of one of the ApoC3 peptide microarrays was done with the secondary antibody goat anti-human IgG (Fe) DyLight680 (1:5000) and control antibody mouse monoclonal anti-HA (12CA5) DyLight800 (1:2000) to investigate background interactions of the secondary antibody with the antigen-derived peptides that could interfere with the main assays. Subsequent incubation of other ApoC3 peptide microarrays with antibody samples was followed by staining with secondary and control antibodies as well as read-out at scanning intensities of 7/7 (red/green). The additional HA peptides framing the peptide arrays were stained as internal quality control to confirm the assay quality and the peptide microarray integrity.

ApoC3 peptide … W42S = biological target: T18, ApoC3 peptide … W42S (human, not fully specified (bridges); also: cyclic constrained)
T18 peptide: ARGSVTDGFSSLK
Description: as §2, §3

ApoC3 peptide … D45M = biological target: T19, ApoC3 peptide … D45M (human, cyclic constrained)
T19 peptide: ARGWVTMGFSSLK
Description: as §2, §3

ApoC3 peptide … K51L = biological target: T20, ApoC3 peptide … K51L (human, not fully specified; cyclic constrained)
T20 peptide: ARGWVTDGFSSLL
Description: as §2, §3

ApoC3 peptide … S48Y = biological target: T21, ApoC3 peptide … S48Y (human, not fully specified (bridges); also: cyclic constrained)
T21 peptide: ARGWVTDGFYSLK
Description: as §2, §3

ApoC3 peptide … K51C = biological target: T22, ApoC3 peptide … K51C (human, thioether (positions not given here); also: cyclic constrained)
T22 peptide: ARGWVTDGFSSLC
Description: as §2, §3

ApoC3 peptide … A39S = biological target: T23, ApoC3 peptide … A39S (human, not fully specified (bridges); also: cyclic constrained)
T23 peptide: SRGWVTDGFSSLK
Description: as §2, §3

ApoC3 peptide … S49C = ApoC3 peptide … S49C (human, cyclic constrained)
Description: as §2, §3

ApoC3 peptide … W42E = biological target: T24, ApoC3 peptide … W42E (human, not fully specified (bridges); also: cyclic constrained)
T24 peptide: ARGEVTDGFSSLK
Description: as §2, §3

% of binding to wild-type peptide (ApoC3 peptide … E70Y): 4.49%
% of binding to wild-type peptide (ApoC3 peptide … F64D): 220%
% of binding to wild-type peptide (ApoC3 peptide … W65Y): 26.7%
% of binding to wild-type peptide (ApoC3 peptide … W65T): 105%
% of binding to wild-type peptide (ApoC3 peptide … D68Q): 0%
% of binding to wild-type peptide (ApoC3 peptide … E70T): 1.55%
% of binding to wild-type peptide (ApoC3 peptide … F61R): 35.6%
% of binding to wild-type peptide (ApoC3 peptide … S62C): 10.4%
% of binding to wild-type peptide (ApoC3 peptide … F64S): 196%
% of binding to wild-type peptide (ApoC3 peptide … E63V): 13%
% of binding to wild-type peptide (ApoC3 peptide … D59L): 68.6%
% of binding to wild-type peptide (ApoC3 peptide … D66G): 0%
% of binding to wild-type peptide (ApoC3 peptide … F64L): 89.7%
% of binding to wild-type peptide (ApoC3 peptide … D59E): 170%
% of binding to wild-type peptide (ApoC3 peptide … F64T): 215%
% of binding to wild-type peptide (ApoC3 peptide … E63F): 8.5%
% of binding to wild-type peptide (ApoC3 peptide … E70G): 1.26%
% of binding to wild-type peptide (ApoC3 peptide … K60H): 124%
% of binding to wild-type peptide (ApoC3 peptide … P69R): 17.4%
% of binding to wild-type peptide (ApoC3 peptide … V71F): 85.4%
% of binding to wild-type peptide (ApoC3 peptide … F64C): 76.4%
% of binding to wild-type peptide (ApoC3 peptide … V71P): 110%
B1: anti-ApoC3 antibody 6A6 (antibody, V domains shown)
VH: EVQLVESGGGLVQPGGSLRLSCAASGFTFSSYAGRWVRQVPGKGLEWVSSINAGGGSTSYADSVKGRFTISRDNAKNTLYLQMNSLKPEDTAKYYCTQNSYRYWGQGTRVAVSS
VL: DVVLTQTPGSLSVVPGESASISCKASQSLIHTDGKTYLYWLLQKPGQRPQLLIYQVSSHESGVPDRFTGSGSGTDFTLKISGVKAEDAGVYYCAQATYNPRTFGQGTKLEIK
notes: it was detected with goat anti-human IgG (Fc); also called mAb 6A6; llama antibody 6A6

% of binding to wild-type peptide (ApoC3 peptide … D45F): 0%
% of binding to wild-type peptide (ApoC3 peptide … W42S): 204%
% of binding to wild-type peptide (ApoC3 peptide … D45M): 21%
% of binding to wild-type peptide (ApoC3 peptide … K51L): 0.33%
% of binding to wild-type peptide (ApoC3 peptide … S48Y): 5.83%
% of binding to wild-type peptide (ApoC3 peptide … K51C): 0%
% of binding to wild-type peptide (ApoC3 peptide … A39S): 81.4%
% of binding to wild-type peptide (ApoC3 peptide … S49C): 0%
% of binding to wild-type peptide (ApoC3 peptide … W42E): 98.5%
B2: anti-ApoC3 antibody 14C7 (antibody, V domains shown)
VH: QVQVQESGPGLVKPSQTLSLTCTVSGGSITTNSYYWSWIRQPPGKGLEWMGAIDYSGDTYYSPSLKSRTSISRDTSKNQFTLQLTSVTPEDTAVYYCVSRIPTGEYWGQGTQVTVSS
VL: QTVVTQEPSLSVSPGGTVTLTCGLNSGSVTSSNYPDWYQQTPGQAPRLLIYNTNSRHSGVPSRFSGSISGNKAALTITGAQPEDEADYYCALYMGSDSVVFGGGTHLTVL
notes: it was detected with goat anti-human IgG (Fc); also called mAb 14C7; llama antibody 14C7
